{"source": "paper PMC3229523", "about": "“Identification of Lactoferricin B Intracellular Targets Using an Escherichia coli Proteome Chip” (PLoS ONE, 2011)", "binders": {"B1": {"name": "N-terminal biotinylated Lactoferricin B (peptide, UniProt P24627 36-60, looked up)", "peptide": "Biotin-FKCRRWQWRMKKLGAPSITCVRRAF", "modifications": "ends and bridges not checked", "notes": "lactoferricin B (LfcinB), cationic antimicrobial peptide of 25 amino acids; also called biotinylated LfcinB; biotin-labeled LfcinB; source: bought: Kelowna Inc"}}, "key": {"YdcC": {"target": "T1, YdcC (E. coli K-12, UniProt P28917 1-378)", "T1 construct": "YdcC, E. coli K-12", "T1 sequence (looked up)": "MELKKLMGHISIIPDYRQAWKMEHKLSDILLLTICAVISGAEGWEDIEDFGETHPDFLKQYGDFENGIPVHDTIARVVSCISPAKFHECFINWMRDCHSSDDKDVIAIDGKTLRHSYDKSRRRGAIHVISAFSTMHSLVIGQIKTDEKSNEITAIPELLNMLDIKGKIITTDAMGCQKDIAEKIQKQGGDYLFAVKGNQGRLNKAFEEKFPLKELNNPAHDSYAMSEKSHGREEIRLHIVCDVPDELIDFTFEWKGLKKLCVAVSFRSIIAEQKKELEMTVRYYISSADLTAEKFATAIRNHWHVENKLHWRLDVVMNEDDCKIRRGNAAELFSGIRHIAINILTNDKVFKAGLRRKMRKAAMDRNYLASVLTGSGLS", "assay": "peptide or protein array; E. coli proteome chip: purified His-tagged proteins printed in duplicate on Fullmoon slides, blocked with 1% BSA; 10 nM N-terminal biotinylated LfcinB with 1% BSA, room temperature, 1 h; detected with DyLight 649-labeled streptavidin, ratio to DyLight 549-labeled anti-His antibody; ProCAT normalisation, local cut-off; triplicate chips", "settings": "both partners purified"}, "AmiA": {"target": "T2, AmiA (E. coli K-12, UniProt P36548 35-289)", "T2 construct": "AmiA, E. coli K-12", "T2 sequence (looked up)": "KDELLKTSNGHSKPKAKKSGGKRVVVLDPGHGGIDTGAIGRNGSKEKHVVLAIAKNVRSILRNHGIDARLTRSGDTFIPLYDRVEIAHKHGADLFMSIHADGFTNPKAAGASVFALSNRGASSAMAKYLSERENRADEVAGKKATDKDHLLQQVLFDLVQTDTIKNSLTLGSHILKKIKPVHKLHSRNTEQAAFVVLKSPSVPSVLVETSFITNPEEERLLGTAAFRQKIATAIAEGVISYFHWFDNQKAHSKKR", "assay": "peptide or protein array; E. coli proteome chip: purified His-tagged proteins printed in duplicate on Fullmoon slides, blocked with 1% BSA; 10 nM N-terminal biotinylated LfcinB with 1% BSA, room temperature, 1 h; detected with DyLight 649-labeled streptavidin, ratio to DyLight 549-labeled anti-His antibody; ProCAT normalisation, local cut-off; triplicate chips", "settings": "both partners purified"}}, "note": "Ends that are not written are not given here. * marks the point of attachment. Biotin = O=C1N[C@H]2[C@H](CS[C@H]2CCCCC(=O)*)N1"}
{"binder": "B1", "values": [{"measurement": "binding result", "setting": "YdcC", "result": "binds"}, {"measurement": "binding result", "setting": "AmiA", "result": "binds"}]}
